Starred links: 1 amine or outer side, 2 acyl side, 3 side chain; linkers in the order of their positions; H or OH if unused. Positions of bridges follow the written chain, without caps; N, C: chain ends. Non-standard residues stand in square brackets, D forms with d. Primed or numbered codes have the meaning given here. *: point of attachment. PyrS2″ = (S)-3-amino-1-((pent-4-en-1-yloxy)carbonyl)pyrrolidine-3-carboxylic acid (stapling residue), C=CCCCOC(=O)N1CC[C@@](N[*:1])(C(=O)[*:2])C1; B5(4) = 2,2-bis(4-pentenyl)glycine = 2-amino-2-(pent-4-en-1-yl)hept-6-enoic acid (stitching residue), C=CCCCC(CCCC=C)(N[*:1])C(=O)[*:2]; TfeGA = (S)-2-amino-3-((carboxymethyl)(2,2,2-trifluoroethyl)amino)propanoic acid, O=C([C@H](CN(CC(=O)[*:3])CC(F)(F)F)N[*:1])[*:2]; PyrS2 = (S)-3-amino-1-((pent-4-en-1-yloxy)carbonyl)pyrrolidine-3-carboxylic acid, C=CCCCOC(=O)N1CC[C@@](N[*:1])(C(=O)[*:2])C1; B5(19) = 2-amino-2-(pent-4-en-1-yl)hept-6-enoic acid (bis(4-pentenyl)glycine), C=CCCCC(CCCC=C)(N[*:1])C(=O)[*:2]; MePpzAsn = (S)-2-amino-4-(4-methylpiperazin-1-yl)-4-oxobutanoic acid, CN1CCN(C(=O)C[C@H](N[*:1])C(=O)[*:2])CC1; F2PipNva = (S)-2-amino-5-(4,4-difluoropiperidin-1-yl)pentanoic acid, O=C([C@H](CCCN1CCC(F)(F)CC1)N[*:1])[*:2]; B5(25) = 2-amino-2-(pent-4-en-1-yl)hept-6-enoic acid (stitching residue), C=CCCCC(CCCC=C)(N[*:1])C(=O)[*:2]; MorphAsn = (S)-2-amino-4-morpholino-4-oxobutanoic acid, O=C(C[C@H](N[*:1])C(=O)[*:2])N1CCOCC1; B5(3) = 2,2-bis(4-pentenyl)glycine (stitching residue), C=CCCCC(CCCC=C)(N[*:1])C(=O)[*:2]; Phe(F5) = N[C@@H](Cc1c(F)c(F)c(F)c(F)c1F)C(=O)O; Nva(5-morpholino) = N[C@@H](CCCN1CCOCC1)C(=O)O; Phe(3-COOH) = N[C@@H](Cc1cccc(C(=O)O)c1)C(=O)O; 2F3MeF = Cc1cccc(C[C@H](N[*:1])C(=O)[*:2])c1F; Phe(2-Cl) = N[C@@H](Cc1ccccc1Cl)C(=O)O; Bta = N[C@@H](Cc1csc2ccccc12)C(=O)O; Lys(iPr) = CC(C)NCCCC[C@H](N)C(=O)O; hTyr = N[C@@H](CCc1ccc(O)cc1)C(=O)O; αAllylPro = C=CC[C@@]1(C(=O)O)CCCN1; tBuAla = CC(C)(C)C[C@H](N)C(=O)O; 3Thi = N[C@@H](Cc1ccsc1)C(=O)O; R5 = C=CCCC[C@@](C)(N)C(=O)O; hLeu = CC(C)CC[C@H](N)C(=O)O; S5 = C=CCCC[C@](C)(N)C(=O)O; hSer = N[C@@H](CCO)C(=O)O; Nle = CCCC[C@H](N)C(=O)O; Aib = CC(C)(N)C(=O)O; Moc = COC(=O)*

The IC50 is the concentration that gives 50% inhibition. Lower therefore signals greater potency. Usually EC50 stands for the concentration at which the effect is half-maximal.

The labels stand for the following.
B1: I-962 (peptide)
peptide: Ac-[αAllylPro]D[tBuAla][B5(25)]D[TfeGA]AAFF[PyrS2″][3Thi][Bta]S-NH2
modifications: staple 1-4, 4-11; also: earlier-eluting HPLC staple isomer
B2: I-963 (peptide)
peptide: Ac-[αAllylPro]D[tBuAla][B5(25)]D[TfeGA]AAFF[PyrS2″][3Thi][Bta]S-NH2
modifications: staple 1-4, 4-11; not fully specified
B3: I-1601 (peptide)
peptide: Ac-[αAllylPro]N[tBuAla][B5(4)]DT[Lys(iPr)]AFS[PyrS2]F[Bta]Q-NH2
modifications: staple 1-4, 4-11
B4: I-1792 (peptide)
peptide: Ac-[αAllylPro]D[tBuAla][B5(19)]D[Phe(F5)]AAFL[PyrS2][3Thi][Bta]Q-NH2
modifications: staple 1-4, 4-11
B5: I-1620 (peptide)
peptide: Ac-[αAllylPro]D[tBuAla][B5(4)]NTAAF[hLeu][PyrS2″][3Thi][Bta]Q-NH2
modifications: staple 1-4, 4-11
B6: I-1619 (peptide)
peptide: Ac-[αAllylPro]D[tBuAla][B5(4)]NTAAF[Nle][PyrS2″][3Thi][Bta]Q-NH2
modifications: staple 1-4, 4-11
B7: I-1778 (peptide)
peptide: Ac-[αAllylPro]D[tBuAla][S5]DDAAF[R5]A[3Thi][Bta][S5]A-NH2
modifications: staple (positions not given here); not fully specified; printed as Ac-PL3-Asp-Npg-S5-Asp-Asp-Ala-Ala-Phe-R5-Ala-3Thi-BztA-S5-Ala-NH2; also: staple pairing among PL3 1, S5 4, R5 10, S5 14 not given here
B8: I-1793 (peptide)
peptide: Ac-[αAllylPro]D[tBuAla][B5(19)]DHAAF[hSer][PyrS2][3Thi][Bta]Q-NH2
modifications: staple 1-4, 4-11; not fully specified; printed as Ac-PL3-Asp-Npg-B5-Asp-His-Ala-Ala-Phe-Hse-PyrS2-3Thi-BztA-Gln-NH2
B9: I-1618 (peptide)
peptide: Ac-[αAllylPro]D[tBuAla][B5(4)]NTAAFL[PyrS2″][3Thi][Bta]Q-NH2
modifications: staple 1-4, 4-11
B10: I-1610 (peptide)
peptide: Ac-[αAllylPro]D[tBuAla][B5(3)]D[Phe(3-COOH)]AAFL[PyrS2][2F3MeF][Bta][Nva(5-morpholino)]-NH2
modifications: staple 1-4, 4-11
B11: I-1786 (peptide)
peptide: Ac-[αAllylPro]D[tBuAla][B5(19)]D[hTyr]AAF[hSer][PyrS2][3Thi][Bta]Q-NH2
modifications: staple 1-4, 4-11
B12: I-1783 (peptide)
peptide: Ac-[αAllylPro]D[tBuAla][B5(19)]DYAAF[hSer][PyrS2][3Thi][Bta]Q-NH2
modifications: staple 1-4, 4-11
B13: I-1609 (peptide)
peptide: Ac-[αAllylPro]D[tBuAla][B5(3)]D[TfeGA]AAFT[PyrS2][Phe(2-Cl)][Bta][Nva(5-morpholino)]-NH2
modifications: staple 1-4, 4-11
B14: I-1599 (peptide)
peptide: Ac-[αAllylPro]N[tBuAla][B5(4)]DT[Lys(iPr)]AFF[PyrS2]F[Bta]Q-NH2
modifications: staple 1-4, 4-11
B15: I-1780 (peptide)
peptide: Ac-[αAllylPro]D[tBuAla][S5]DD[Aib]AF[R5]A[3Thi][Bta][S5]A-NH2
modifications: staple (positions not given here); not fully specified; printed as Ac-PL3-Asp-Npg-S5-Asp-Asp-Aib-Ala-Phe-R5-Ala-3Thi-BztA-S5-Ala-NH2; also: staple pairing among PL3 1, S5 4, R5 10, S5 14 not given here
B16: I-1794 (peptide)
peptide: Ac-[αAllylPro]D[tBuAla][B5(3)]DHAAF[hSer][PyrS2″][3Thi][Bta]Q-NH2
modifications: staple 1-4, 4-11; not fully specified; printed as Ac-PL3-Asp-Npg-B5-Asp-His-Ala-Ala-Phe-Hse-PyrS2-3Thi-BztA-Gln-NH2
B17: I-1608 (peptide)
peptide: Ac-[αAllylPro]D[tBuAla][B5(4)]D[Phe(3-COOH)]AAFL[PyrS2][2F3MeF][Bta][F2PipNva]-NH2
modifications: staple 1-4, 4-11
B18: I-1621 (peptide)
peptide: Ac-[αAllylPro]D[tBuAla][B5(4)]NTAAFT[PyrS2″][3Thi][Bta]Q-NH2
modifications: staple 1-4, 4-11
B19: I-1784 (peptide)
peptide: Ac-[αAllylPro]D[tBuAla][B5(19)]DYAAFL[PyrS2][3Thi][Bta]Q-NH2
modifications: staple 1-4, 4-11
B20: I-1615 (peptide)
peptide: Ac-[αAllylPro]D[tBuAla][B5(3)]D[TfeGA]AAFT[PyrS2″][Phe(2-Cl)][Bta][Lys(iPr)]-NH2
modifications: staple 1-4, 4-11
B21: I-1612 (peptide)
peptide: Ac-[αAllylPro]D[tBuAla][B5(3)]D[Phe(3-COOH)]AAFL[PyrS2″][2F3MeF][Bta][MePpzAsn]-NH2
modifications: staple 1-4, 4-11
B22: I-1614 (peptide)
peptide: Ac-[αAllylPro]D[tBuAla][B5(3)]D[Phe(3-COOH)]AAFL[PyrS2″][2F3MeF][Bta][MorphAsn]-NH2
modifications: staple 1-4, 4-11
B23: I-1607 (peptide)
peptide: Ac-[αAllylPro]D[tBuAla][B5(4)]D[TfeGA]AAFT[PyrS2][Phe(2-Cl)][Bta][F2PipNva]-NH2
modifications: staple 1-4, 4-11
B24: I-1602 (peptide)
peptide: Ac-[αAllylPro]N[tBuAla][B5(4)]DT[Lys(iPr)]AFN[PyrS2]F[Bta]Q-NH2
modifications: staple 1-4, 4-11
B25: I-1788 (peptide)
peptide: Ac-[αAllylPro]D[tBuAla][B5(19)]DWAAFN[PyrS2][3Thi][Bta]Q-NH2
modifications: staple 1-4, 4-11
B26: I-1600 (peptide)
peptide: Ac-[αAllylPro]N[tBuAla][B5(4)]DT[Lys(iPr)]AFW[PyrS2]F[Bta]Q-NH2
modifications: staple 1-4, 4-11
B27: I-1789 (peptide)
peptide: Ac-[αAllylPro]D[tBuAla][B5(19)]DWAAF[hSer][PyrS2][3Thi][Bta]Q-NH2
modifications: staple 1-4, 4-11
B28: I-1597 (peptide)
peptide: Ac-[αAllylPro]N[tBuAla][B5(4)]DT[Lys(iPr)]ASL[PyrS2]F[Bta]Q-NH2
modifications: staple 1-4, 4-11
B29: I-1611 (peptide)
peptide: Ac-[αAllylPro]D[tBuAla][B5(3)]D[TfeGA]AAFT[PyrS2″][Phe(2-Cl)][Bta][MePpzAsn]-NH2
modifications: staple 1-4, 4-11
B30: I-2362 (peptide)
peptide: Moc-[αAllylPro]D[tBuAla][B5(4)]DDAAFQ[PyrS2″][3Thi][Bta]H-NH2
modifications: staple 1-4, 4-11
B31: I-1613 (peptide)
peptide: Ac-[αAllylPro]D[tBuAla][B5(3)]D[TfeGA]AAFT[PyrS2″][Phe(2-Cl)][Bta][MorphAsn]-NH2
modifications: staple 1-4, 4-11
B32: I-1781 (peptide)
peptide: Ac-[αAllylPro]D[tBuAla][S5]DD[Aib]AF[R5]A[3Thi][Bta][S5]A-NH2
modifications: staple (positions not given here); not fully specified; printed as Ac-PL3-Asp-Npg-S5-Asp-Asp-Aib-Ala-Phe-R5-Ala-3Thi-BztA-S5-Ala-NH2; also: staple pairing among PL3 1, S5 4, R5 10, S5 14 not given here
B33: I-1791 (peptide)
peptide: Ac-[αAllylPro]D[tBuAla][B5(19)]D[Phe(F5)]AAF[hSer][PyrS2][3Thi][Bta]Q-NH2
modifications: staple 1-4, 4-11

The first experiment has as its target full-length beta-Catenin (Uniprot ID P35222) (Homo sapiens (Human)) (UniProt P35222). The experiment can be described thus: fluorescence polarization competition vs 5FAM-TCF4(10-53) on full-length beta-catenin.
Target sequence in this assay (P35222 2-781 limits assumed): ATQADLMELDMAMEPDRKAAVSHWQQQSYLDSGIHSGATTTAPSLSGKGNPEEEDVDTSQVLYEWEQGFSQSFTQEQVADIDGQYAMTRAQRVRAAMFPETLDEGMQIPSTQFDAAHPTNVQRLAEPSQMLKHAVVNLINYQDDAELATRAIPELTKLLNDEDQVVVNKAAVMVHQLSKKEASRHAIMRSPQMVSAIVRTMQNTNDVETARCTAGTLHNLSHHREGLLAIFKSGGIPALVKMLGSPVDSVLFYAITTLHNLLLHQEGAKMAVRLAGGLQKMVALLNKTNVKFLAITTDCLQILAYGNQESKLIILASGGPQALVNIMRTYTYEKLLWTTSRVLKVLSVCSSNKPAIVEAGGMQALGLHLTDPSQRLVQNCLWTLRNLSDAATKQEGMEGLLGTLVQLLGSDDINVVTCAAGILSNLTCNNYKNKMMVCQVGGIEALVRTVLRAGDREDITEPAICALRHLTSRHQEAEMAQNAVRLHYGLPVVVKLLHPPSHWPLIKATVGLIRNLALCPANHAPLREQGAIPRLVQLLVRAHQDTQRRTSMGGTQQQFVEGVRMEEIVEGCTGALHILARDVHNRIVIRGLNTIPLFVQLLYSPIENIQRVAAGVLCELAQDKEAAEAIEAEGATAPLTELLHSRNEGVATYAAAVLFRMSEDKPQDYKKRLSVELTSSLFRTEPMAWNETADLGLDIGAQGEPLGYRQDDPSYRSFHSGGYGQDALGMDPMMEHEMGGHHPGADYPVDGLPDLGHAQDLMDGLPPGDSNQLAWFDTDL
B1 showed an IC50 of 407 nM. That is a sub-micromolar value. Same read-out and setting: next, B2: 402 nM.

For a further experiment the target is unchanged. The experiment can be described thus: fluorescence polarization competition against 5FAM-TCF4 10-53 on full-length beta-catenin. (Polarisation of emitted light reports the rotation of a fluorescent probe.)
B3 came in with a concentration for half-maximal inhibition (IC50) of 2020 nM. On the same count and under the same terms, the value for B4 was 935 nM. Same read-out and setting: next, B5: 2060 nM. In turn, B6 came in with a half-inhibitory concentration (IC50) of 1290 nM. Compared with the last molecule, the IC50 is about 1.6-fold lower. The same measure, in the same setting: next, B7: 2080 nM; B8: 20 nM. Still for that read-out and setting: the value for B9 was 10000 nM.

Take B10: the IC50 came to 19 nM. This IC50 is about 530-fold lower than that of the molecule before. On the same count and under the same terms, the value for B11 was 42 nM. In turn, B12 had an IC50 of 101 nM. For B13, the IC50 was found to be 15 nM.

In turn, B14 came in with an IC50 of 1080 nM. Same read-out and setting: next, B15: 4190 nM. Still for that read-out and setting: the value for B16 was 52 nM; that for B17 was 76 nM; that for B18 was 266 nM. Molecule B19 showed a concentration for half-maximal inhibition (IC50) of 528 nM.

B20: the half-maximal inhibitory concentration (IC50) was 9 nM. Same read-out and setting: the value for B21 was 10 nM; that for B22 was 15 nM; that for B23 was 49 nM. Same read-out and setting: next, B24: 362 nM; B25: 58 nM. Same read-out and setting: next, B26: 4290 nM; B27: 183 nM; B28: 6990 nM. Molecule B29 came in with a half-inhibitory concentration (IC50) of 10 nM. On the same count and under the same terms, the value for B30 was 66 nM; that for B31 was 9 nM; that for B32 was 8450 nM.

Consider B33, for which the IC50 was 182 nM.

Another experiment shares this target. The experiment can be described thus: fluorescence polarization competition; 10 nM full-length beta-catenin + 10 nM 5FAM-TCF4(10-53) probe.
Target sequence in this assay (P35222 whole entry): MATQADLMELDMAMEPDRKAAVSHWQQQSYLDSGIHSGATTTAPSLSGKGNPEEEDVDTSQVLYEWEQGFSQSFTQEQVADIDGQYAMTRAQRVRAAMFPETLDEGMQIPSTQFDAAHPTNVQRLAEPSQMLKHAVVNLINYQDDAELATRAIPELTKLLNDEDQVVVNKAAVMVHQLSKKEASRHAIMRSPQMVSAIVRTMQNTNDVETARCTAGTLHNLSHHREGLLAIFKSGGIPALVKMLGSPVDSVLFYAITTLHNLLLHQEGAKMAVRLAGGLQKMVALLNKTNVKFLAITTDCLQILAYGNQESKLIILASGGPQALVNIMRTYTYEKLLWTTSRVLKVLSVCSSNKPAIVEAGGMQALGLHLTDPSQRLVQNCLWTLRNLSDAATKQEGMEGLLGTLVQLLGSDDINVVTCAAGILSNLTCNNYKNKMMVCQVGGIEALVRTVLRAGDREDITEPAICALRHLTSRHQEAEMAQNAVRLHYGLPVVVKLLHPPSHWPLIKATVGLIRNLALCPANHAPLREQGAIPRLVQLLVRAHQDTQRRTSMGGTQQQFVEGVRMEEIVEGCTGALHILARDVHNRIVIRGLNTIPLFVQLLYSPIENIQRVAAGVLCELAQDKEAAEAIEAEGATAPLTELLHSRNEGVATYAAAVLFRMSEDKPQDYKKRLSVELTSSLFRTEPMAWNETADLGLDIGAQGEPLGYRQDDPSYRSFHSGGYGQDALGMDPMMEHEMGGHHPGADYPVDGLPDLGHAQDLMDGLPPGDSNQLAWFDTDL
For the molecule B1, the EC50 was 407 nM. The same measure, in the same setting: the value for B2 was 402 nM.
